Data reported in paper PMC11524583, “Neurons enhance blood–brain barrier function via upregulating claudin-5 and VE-cadherin expression due to glial cell line-derived neurotrophic factor secretion” (eLife, 2024).
Where “and” joins values, the source holds several entries; their conditions need not be identical. Identical values can stand only once.

Assays:
[1] = system: p-ERK/ERK; assay: Western blot of p-ERK/ERK in hCMEC/D3 cells; type: cell-based, Homo sapiens
Experimental: (§1) Whole-cell and tissue lysates, nucleoprotein, and cytoplasmic protein were prepared using RIPA Lysis Buffer (Beyotime, Shanghai, China) as the described method ([Wu et al., 2021]). Proteins were separated through sodium dodecyl sulfate–polyacrylamide gel electrophoresis and transferred onto nitrocellulose or polyvinylidene difluoride membranes. The membranes were blocked with 5% skim milk and incubated with corresponding primary antibodies at 4°C overnight. After being washed with Tris-buffered saline Tween buffer, the membranes were incubated with secondary antibodies (Cell Signaling Technology, MA, USA) at 1:3000 dilution: Anti-mouse IgG, HRP-linked Antibody (#7076), Anti-rabbit IgG, HRP-linked Antibody (#7074). Protein levels were visualized using a highly sensitive ECL western blotting substrate and a gel imaging system (Tanon Science & Technology, Shanghai, China).
Exogenous and endogenous GDNF in the medium was neutralized with anti-GDNF antibody (#AF-212-NA, R&D system, Minneapolis, MN, USA). 0.25, 0.5, and 1.0 μg/ml anti-GDNF antibody was added into the US-CM or medium containing 200 pg/ml GDNF, and then the medium was preincubated at 4°C for 1 hr. The hCMEC/D3 cells were incubated with 200 pg/ml GDNF or US-CM containing anti-GDNF antibody or not for 6 days, and then cell lysate was collected for western blot. The medium was replaced every 24 hr.

[2] = system: claudin-5; assay: Western blot of claudin-5 expression in hCMEC/D3 cells; type: cell-based, Homo sapiens
In short: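 hCMEC/D3 cells were cultured in U251/SH-SY5Y co-culture conditioned medium or 200 pg/ml GDNF, with or without 0.25–1.0 μg/ml anti-GDNF antibody, for 6 days; alternatively, after 10 nM siRNA or FOXO1 plasmid transfection, cells received GDNF medium for 72 hr. RIPA lysates were analysed by SDS-PAGE immunoblot with ECL detection.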

[3] = system: VE-cadherin; assay: Western blot of VE-cadherin in primary rat brain microvascular endothelial cells; type: cell-based; conditions: primary rat BMECs, 200 pg/ml GDNF or US-CM
Experimental: Then, hCMEC/D3, U251, and SH-SY5Y cells were cultured in DMEM/F12 containing 10% FBS, 62.5 µg/ml penicillin and 100 µg/ml streptomycin. Cell viability was assessed using a CCK-8 kit (Beyotime Biotechnology, Shanghai, China), and the results were expressed as the fold of control.
as §1

[4] = system: p-JNK/JNK; assay: Western blot of p-JNK/JNK in hCMEC/D3 cells; type: cell-based, Homo sapiens
Experimental: as §1

[5] = system: FOXO1; assay: Western blot of FOXO1 (p-FOXO1/FOXO1, total, cytoplasmic, nuclear) in hCMEC/D3 cells; type: cell-based, Homo sapiens
Experimental: as §1
Here, hCMEC/D3 cells were plated in the plates or culture dishes at 6 × 10^4 cells/cm^2 and transfected with 10 nM of negative control or human FOXO1, ETS1, and CDH5 siRNA (Tsingke Biotechnology, Beijing, China) for 12 hr using Lipofectamine 3000 (Invitrogen, Carlsbad, CA, USA) reagent according to the manufacturer’s instructions. Cells were then incubated with a medium containing GDNF for 72 hr.
The plasmids encoding FOXO1 (EX-Z7404-M02) were constructed by GeneCopoeia (Rockville, MD, USA). The hCMEC/D3 cells were plated in plates or dishes at 6 × 10^4 cells/cm^2. They were subsequently transfected with 1 µg of negative control or plasmids encoding FOXO1 6 hr using Lipofectamine 3000 reagent according to the manufacturer’s instructions. Transfected cells were then incubated with the medium containing GDNF for 72 hr.

[6] = relative to Con (mean 1.000), mean of 4, Figure 3B
[7] = relative to Con (mean 1.000), single replicates, Figure 3B
[8] = relative to Con (mean 1.000), mean of 4, Figure 3C
[9] = relative to Con (mean 1.000), single replicates, Figure 3C
[10] = Cytoplasm protein, Figure 4F, group mean, Con = 1.000
[11] = Cytoplasm protein, Figure 4F, individual replicates, relative to Con

B1: GDNF: glial cell line-derived neurotrophic factor, recombinant protein (R&D system) (protein, UniProt P39905 78-211, looked up)
Glial cell line-derived …: SPDKQMAVLPRRERNRQAAAANPENSRGKGRRGQRGKNRGCVLTAIHLNVTDLGLGYETKEELIFRYCSGSCDAAETTYDKILKNLSRNRRLVSDKVGQACCRPIAFDDDLSFLDDNLVYHILRKHSAKRCGCI
B1 was tested, and the “phosphorylation of ERK (p-ERK)” value ([1]; hCMEC/D3 cells, 200 pg/ml GDNF or US-CM) was “accompanied by the phosphorylation”, the “p-ERK/ERK Relative Expression, Mean” value ([1]; mean of 4, relative to Con, GDNF alone, Figure 3E) was 1.352 and the “p-ERK/ERK Relative Expression, Mean” value [1, 6] was 1.377. For the same molecule, the “p-ERK/ERK Relative Expression” value [1, 7] was 1.512 and 1.333 and 1.310 and 1.351, the “p-ERK/ERK Relative Expression” value ([1]; single replicate, relative to Con, GDNF alone, Figure 3E) was 1.315 and 1.511 and 1.307 and 1.277 and the “Claudin-5/β-actin Relative Expression, Mean” value ([2]; 50pg, Figure 2D, Con = 1.000) was 1.434. For the same molecule, the “Claudin-5/β-actin Relative Expression” value ([2]; 50pg, Figure 2D, relative to Con, single replicates) was 1.162 and 1.622 and 1.551 and 1.402, the “Claudin-5/β-actin Relative Expression, Mean” value ([2]; 100pg, Figure 2D, Con = 1.000) was 1.645 and the “Claudin-5/β-actin Relative Expression” value ([2]; 100pg, Figure 2D, relative to Con, single replicates) was 1.855 and 1.384 and 1.893 and 1.449. The “Claudin-5/β-actin Relative Expression, Mean” value ([2]; 200pg, Figure 2D, Con = 1.000) was 2.035, the “Claudin-5/β-actin Relative Expression” value ([2]; 200pg, Figure 2D, relative to Con, single replicates) was 2.027 and 2.014 and 1.765 and 2.333 and the “Claudin-5/β-actin Mean” value ([2]; Figure 2I, hCMEC/D3 cells, group mean, relative to Con) was 1.520. The “Claudin-5/β-actin Relative Expression” value ([2]; Figure 2I, hCMEC/D3 cells, individual replicates, relative to Con) was 1.748 and 1.509 and 1.594 and 1.229, the “Claudin-5/β-actin Mean” value ([2]; Figure 2K, hCMEC/D3 cells, group mean, relative to Con) was 1.490 and the “Claudin-5/β-actin Relative Expression” value ([2]; Figure 2K, hCMEC/D3 cells, individual replicates, relative to Con) was 1.399 and 1.426 and 1.661 and 1.475. The “Claudin-5/β-actin Relative Expression, Mean” value ([2]; Figure 5G, hCMEC/D3 cells, group mean, NC = 1.000) was 1.393, the “Claudin-5/β-actin Relative Expression” value ([2]; Figure 5G, hCMEC/D3 cells, single replicates, relative to NC group) was 1.279 and 1.343 and 1.470 and 1.479 and the claudin-5 expression ([2]; hCMEC/D3 cells incubated with conditioned medium or neurotrophic factor vs normal medium) was “induced the expression of claudin-5 and VE-cadherin in a concentration-dependent manner”. The “Claudin-5/β-actin Relative Expression, Mean” value ([2]; relative to Con (mean 1.000), mean of 4, Figure 3A) was 1.789, the “Claudin-5/β-actin Relative Expression, Mean” value [2, 6] was 1.788 and the “Claudin-5/β-actin Relative Expression, Mean” value [2, 8] was 2.325. The “Claudin-5/β-actin Relative Expression, Mean” value ([2]; relative to Con (mean 1.000), mean of 4, Figure 3D) was 1.421, the “Claudin-5/β-actin Relative Expression” value ([2]; relative to Con (mean 1.000), single replicates, Figure 3A) was 1.761 and 1.657 and 1.692 and 2.046 and the “Claudin-5/β-actin Relative Expression” value [2, 7] was 1.594 and 2.146 and 1.495 and 1.917. The “Claudin-5/β-actin Relative Expression” value [2, 9] was 2.223 and 2.345 and 2.874 and 1.857, the “Claudin-5/β-actin Relative Expression” value ([2]; relative to Con (mean 1.000), single replicates, Figure 3D) was 1.649 and 1.456 and 1.174 and 1.405 and the “VE-cadherin/β-actin Relative Expression, Mean” value ([3]; Con = 1.000 (Figure 2J)) was 1.773. For the same molecule, the “VE-cadherin/β-actin Relative Expression” value ([3]; relative to Con, single replicate (Figure 2J)) was 2.095 and 1.692 and 1.731 and 1.576, the “phosphorylation of JNK” value ([4]; hCMEC/D3 cells, 200 pg/ml GDNF) was “did not stimulate” and the “p-JNK/JNK Relative Expression Mean” value [4, 8] was 1.172. The “p-JNK/JNK Relative Expression” value [4, 9] was 1.036 and 1.122 and 1.219 and 1.311, the “FOXO1/GAPDH Relative Expression, Mean” value [5, 10] was 1.482 and the “p-FOXO1/GAPDH Relative Expression, Mean” value [5, 10] was 1.560. For the same molecule, the “FOXO1/GAPDH Relative Expression” value [5, 11] was 1.349 and 1.335 and 1.673 and 1.570, the “p-FOXO1/GAPDH Relative Expression” value [5, 11] was 1.317 and 1.387 and 1.877 and 1.660 and the “p-FOXO1/FOXO1 Relative Expression, Mean” value ([5]; Figure 4A, group mean, Con = 1.000) was 2.044. The “p-FOXO1/FOXO1 Relative Expression” value ([5]; Figure 4A, individual replicates, relative to Con) was 2.153 and 1.987 and 1.525 and 2.510 and the “FOXO1/β-actin Relative Expression, Mean” value ([5]; Figure 4A, total FOXO1, group mean, Con = 1.000) was 0.802.
